From the supplement of paper PMC7125110 come the findings set out here.

B1: glmS ribozyme (parent)
chain: AUAAAAGCGCCAGAACUACAGAAAUGUAGUUGACGAGGAGGAGGUUUAUCGAAUUUUCGGCGGAUGCCUCCAAA

Details in all cases: with glucosamine-6-phosphate
Variants of B1 are the subject of data set [1]. Nature of the data set: self-cleavage kobs at 640 uM GlcN6P; higher = faster cleavage; RNA array. In a few lines:
(§1)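 In situ transcription by E. coli RNA polymerase produced barcoded ribozyme variants on sequenced MiSeq chips, and a hybridised Cy3 probe tracked them at 37 °C. Glucosamine-6-phosphate was flowed in at 40 μM to 10 mM in HEPES/KCl/Mg(OAc)2 buffer. kcat and KM were taken from weighted Michaelis–Menten fits of kobs values from exponential decay fits.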

The variants in data set [2] derive from B1. Nature of the data set: self-cleavage kobs at 2500 uM GlcN6P; higher = faster cleavage; RNA array. In a few lines:
as §1

Variants of B1 are the subject of data set [3]. Nature of the data set: self-cleavage kobs at 10000 uM GlcN6P; higher = faster cleavage; RNA array. In a few lines: as §1
In data set [4] the parent is B1. Briefly: self-cleavage kobs at 160 uM GlcN6P; higher = faster cleavage; RNA array. In a few lines:
as §1

± gives the standard error. Fewer inactive variants are shown than the library holds. Some results are limits rather than exact numbers.

Regarding AUAAAGGCGCCAGAACUACAGAAAUGUAGAUGACGAGGUGGAGGUUUAUCGAAUUUUCGUCGGAUGCCUCCAAA [A6G U30A A39U G60U], the “self-cleavage kobs at 640 uM GlcN6P” value with glucosamine-6-phosphate [1] was < 1e-05 s⁻¹. Moreover, the “self-cleavage kobs at 2500 uM GlcN6P” value with glucosamine-6-phosphate [2] is < 1e-05 s⁻¹.

Take AUAAAAGCGCGUGAACUACAGAAAUGUAGUUGACGAGCAGGUGGUUUAUCGAAUUUUCGGCGGAUGCCUCCAAA [C11G A12U G38C A42U]: the “self-cleavage kobs at 640 uM GlcN6P” value in the data set with glucosamine-6-phosphate [1] was < 1e-05 s⁻¹. Besides, the “self-cleavage kobs at 2500 uM GlcN6P” value in the data set with glucosamine-6-phosphate [2] is < 1e-05 s⁻¹.

As for AUAAAAGCGCCAGCACUACAGAAAUGUAGUUCACGAGGAGGAGGUUUAUCGAAUUUUCGGCGGAUGCCUCUAAA [A14C G32C C71U], the “self-cleavage kobs at 640 uM GlcN6P” value in the data set with glucosamine-6-phosphate [1] worked out at 7.58e-05 ± 2.5e-05 s⁻¹. For the same variant, the “self-cleavage kobs at 2500 uM GlcN6P” value with glucosamine-6-phosphate [2] was 0.000118 ± 2.6e-05 s⁻¹. Moreover, in the data set with glucosamine-6-phosphate [3], the “self-cleavage kobs at 10000 uM GlcN6P” value turned out to be 0.000332 ± 7.4e-05 s⁻¹.

For AUAAAAGCGCCAGAACUACAGAAAUGUAGUUGACGAGGAUGAGGUUUAACGAAUUUUCGGCGGAUGCCUCCAAA [G40U U49A], the “self-cleavage kobs at 640 uM GlcN6P” value with glucosamine-6-phosphate [1] is < 1e-05 s⁻¹. The “self-cleavage kobs at 2500 uM GlcN6P” value in the data set with glucosamine-6-phosphate [2] was < 1e-05 s⁻¹. For the same variant, the “self-cleavage kobs at 10000 uM GlcN6P” value with glucosamine-6-phosphate [3] is < 1e-05 s⁻¹.

On to AUAAAAGCGCCAGAACUACAGAAAUGUAGUUGACGAGGAGGAGGUUUAUCGGAUGUUCGGCGUAUGCCUCCAAA [A52G U55G G63U], for which, in the data set with glucosamine-6-phosphate [1], the “self-cleavage kobs at 640 uM GlcN6P” value was < 1e-05 s⁻¹. Moreover, the “self-cleavage kobs at 2500 uM GlcN6P” value in the data set with glucosamine-6-phosphate [2] was 0.000758 ± 0.0003 s⁻¹.

As for AUAAAAGCGCCAGAACUACAGAAAUGUAGUUGACGAGGAGGAGGUUUAUGGAAUUUUCGGCGGCUGCCUCCAAA [C50G A64C], the “self-cleavage kobs at 160 uM GlcN6P” value with glucosamine-6-phosphate [4] turned out to be 7.93e-05 ± 2.1e-05 s⁻¹. Also, in the data set with glucosamine-6-phosphate [2], the “self-cleavage kobs at 2500 uM GlcN6P” value is 6.53e-05 ± 1.7e-05 s⁻¹. Further, the “self-cleavage kobs at 10000 uM GlcN6P” value with glucosamine-6-phosphate [3] was 2.52e-05 ± 1.2e-05 s⁻¹.

AUAAAAGCGUCGGAACUACAGAAAUGUAGUUAACGAGGAGGUGGUUUAUCGAAUUUUCGGCGGAUGCCUCCAAA [C10U A12G G32A A42U]: in the data set with glucosamine-6-phosphate [1], the “self-cleavage kobs at 640 uM GlcN6P” value was < 1e-05 s⁻¹. Besides, in the data set with glucosamine-6-phosphate [2], the “self-cleavage kobs at 2500 uM GlcN6P” value is < 1e-05 s⁻¹.

As for AUAAAAGCGCCAGAACUACAGAAAUGUAGUUGACGAGGAGGAGGUUAAUCGAAGUUUCGGCGGAUGCGUCCAAA [U47A U54G C68G], the “self-cleavage kobs at 640 uM GlcN6P” value with glucosamine-6-phosphate [1] was determined as 6.48e-05 ± 1.2e-05 s⁻¹. Further, the “self-cleavage kobs at 2500 uM GlcN6P” value in the data set with glucosamine-6-phosphate [2] was found to be 6.96e-05 ± 1.8e-05 s⁻¹.

Regarding AUAAAAGCGCCGGUACUACAGAAAUGUAGUUGACGAGGAGGUGGUUUAUCGAAAUUUCGGCGGAUGCCUGCAAA [A12G A14U A42U U54A C70G], the “self-cleavage kobs at 640 uM GlcN6P” value in the data set with glucosamine-6-phosphate [1] was < 1e-05 s⁻¹.

Take AUAAAAGCUCCAGAACUACAGAAAUGUAGUUGACGAGGAAGAGGUUUAUCGAAUUUUCGGGGGAUGCCUCCAAA [G9U G40A C61G]: the “self-cleavage kobs at 640 uM GlcN6P” value in the data set with glucosamine-6-phosphate [1] is < 1e-05 s⁻¹.

Regarding AUAAAAGCGCCAGAACUACAGAAAUGUAGUUGUCGAGAGGGAGGUUUAUCGAAUUUUCGGCGGAUGCCUCCAAA [A33U G38A A39G], the “self-cleavage kobs at 160 uM GlcN6P” value with glucosamine-6-phosphate [4] was < 1e-05 s⁻¹. In addition, the “self-cleavage kobs at 640 uM GlcN6P” value with glucosamine-6-phosphate [1] is < 1e-05 s⁻¹.

Take AUAAAAGCGCCAGAACUACAGACAUGUAGUUGACGAGGAGGAGGUUUAUCGAAUUUUCGGCGGAUGCUUCCAAA [A23C C68U]: in the data set with glucosamine-6-phosphate [1], the “self-cleavage kobs at 640 uM GlcN6P” value amounted to 0.00205 ± 0.00047 s⁻¹. Further, the “self-cleavage kobs at 2500 uM GlcN6P” value with glucosamine-6-phosphate [2] came out at 0.00111 ± 0.00026 s⁻¹.

As for AUAAAGGCGCCAGAACUACAGAAAUGUAGUUGACGAGGAGGCGGUUUAUCGAAUUAUCGGGGGAUGCCUCCAAA [A6G A42C U56A C61G], in the data set with glucosamine-6-phosphate [1], the “self-cleavage kobs at 640 uM GlcN6P” value was < 1e-05 s⁻¹.

For AUAAAAGCGCGAGAACUACAGAAAUGUAGUUGACGAGGAGUAGGUUUGUCGCAUUUUCGGCGGAUGCCUCCAAA [C11G G41U A48G A52C], the “self-cleavage kobs at 640 uM GlcN6P” value in the data set with glucosamine-6-phosphate [1] is < 1e-05 s⁻¹. Besides, the “self-cleavage kobs at 2500 uM GlcN6P” value with glucosamine-6-phosphate [2] was < 1e-05 s⁻¹.

Turning to AUAAAAGCGCGCGAACUACAGAAAUGUAGUUGACGAGGAGGAGGUUUAUCGAAUUUUCGGCGGAUGCCUUCAAA [C11G A12C C70U], the “self-cleavage kobs at 640 uM GlcN6P” value in the data set with glucosamine-6-phosphate [1] came to 6.11e-05 ± 2.5e-05 s⁻¹. The “self-cleavage kobs at 2500 uM GlcN6P” value with glucosamine-6-phosphate [2] came out at 8.42e-05 ± 2.9e-05 s⁻¹.

As to AUAAAAGCGCCAGAACUACAGAAAUGUAGUUGACGAGGAUGAGAUUUAUGGAAUUUUCGGCGGAUGCCUCGAAA [G40U G44A C50G C71G], in the data set with glucosamine-6-phosphate [1], the “self-cleavage kobs at 640 uM GlcN6P” value was < 1e-05 s⁻¹. Also, the “self-cleavage kobs at 2500 uM GlcN6P” value with glucosamine-6-phosphate [2] was < 1e-05 s⁻¹.

In the case of AUAAAAGCGCCAGAAGUACAGAAAUGUAGAUGACGAGGAGGAGGUUUAUCGAAUGUUCGGCGGAUGCCUCCAAA [C16G U30A U55G], the “self-cleavage kobs at 640 uM GlcN6P” value with glucosamine-6-phosphate [1] was 0.000125 ± 5.7e-05 s⁻¹. Also, the “self-cleavage kobs at 2500 uM GlcN6P” value with glucosamine-6-phosphate [2] was 8.11e-05 ± 3.1e-05 s⁻¹.

For AUAAAAGCGCCAGAAGUACAGAAAUGUAGUUGACGAGGAGGAGGUUUGUCGAAUUGUCAGCGGAUGCCUCCAAA [C16G A48G U56G G59A], in the data set with glucosamine-6-phosphate [1], the “self-cleavage kobs at 640 uM GlcN6P” value was < 1e-05 s⁻¹.

For the variant AUAAACGCGUAAGAACUACAGAAAUGUAGUUGACGAGGAGGAGGUUUAUCGAAUUCUCGGCGGAUGCCUCCAAA [A6C C10U C11A U56C], the “self-cleavage kobs at 640 uM GlcN6P” value with glucosamine-6-phosphate [1] is < 1e-05 s⁻¹. In addition, the “self-cleavage kobs at 2500 uM GlcN6P” value with glucosamine-6-phosphate [2] was < 1e-05 s⁻¹.
